These results are taken from patent US20170114111A1 (UNIVERSITY OF CAPE TOWN, published 2017).

The test concerns the target CD64 (human, UniProt P12314 16-374). Briefly: cell-based or functional assay.

CD64, sequence (P12314 16-374): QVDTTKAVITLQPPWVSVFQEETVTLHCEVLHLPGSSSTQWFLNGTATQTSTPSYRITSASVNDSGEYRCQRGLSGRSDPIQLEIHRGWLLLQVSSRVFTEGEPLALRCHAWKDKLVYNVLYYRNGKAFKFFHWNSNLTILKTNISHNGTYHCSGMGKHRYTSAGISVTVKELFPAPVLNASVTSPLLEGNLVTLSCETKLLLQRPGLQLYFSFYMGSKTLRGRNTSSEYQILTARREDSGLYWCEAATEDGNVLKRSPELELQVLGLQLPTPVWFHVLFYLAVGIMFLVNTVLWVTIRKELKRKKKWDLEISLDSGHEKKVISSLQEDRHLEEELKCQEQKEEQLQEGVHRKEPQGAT

B1: H22-Ang GGRR/QGmut (other)
chain: DAAQPAMAQVQLVESGGGVVQPGRSLRLSCSSSGFIFSDNYMYWVRQAPGKGLEWVATISDGGSYTYYPDSVKGRFTISRDNSKNTLFLQMDSLRPEDTGVYFCARGYYRYEGAMDYWGQGTPVTVSSGGGGSGGGGSGGGGSDIQLTQSPSSLSASVGDRVTITCKSSQSVLYSSNQKNYLAWYQQKPGKAPKLLIYWASTRESGVPSRFSGSGSGTDFTFTISSLQPEDIATYYCHQYLSSWTFGQGTKLEIKAAALESRQDNSRYTHFLTQHYDAKPQGRDDRYCESIMRRRGLTSPCKDINTFIHGNKRSIKAICENKNGNPHRENLRISKSSFQVTTCKLHRRSPWPPCQYRATAGFRNVVVACENGLPVHLDGSIFRRPAEHEFRGGPEQKLISEEDLNSAVDHHHHHH
As to B1, the “IC50, XTT viability assay on IFNγ-stimulated CD64+ HL-60 cells” value amounted to 4.2 nM; the “IC50, XTT viability assay on activated human Mφ” value was 0.075 nM; the “IC50, XTT viability assay on hIFNγ-stimulated HL-60 cells” value is 4.3 nM.
